Reference: paper PMC12552534

Assays:
[1] = biological target: C terminally LgBiT-fused C protein (Sendai virus); experiment: split reporter (BiFC, NanoBiT); NanoBiT; 293T cells co-transfected with LgBiT-fused C and SmBiT-fused STAT1, STAT3 or SV40 large T antigen (negative control), 24 h; luciferase activity measured in NP-40 lysates, normalised to GAPDH; control set to 1
[2] = biological target: N terminally histidine-tagged N-terminal domain of STAT3 (STAT3ND) (human) (UniProt P40763); experiment: native MS; Y3 (50 μM) complexed with STAT3ND (50 μM), buffer-exchanged to 450 mM ammonium acetate pH 8.0, nano-ESI, native condition
[3] = biological target: N terminally histidine-tagged Y3 (C-terminal region of Sendai virus C protein) (Sendai virus); experiment: as above
[4] = biological target: N terminally histidine-tagged N-terminal domain of STAT3 (STAT3ND) (human) (UniProt P40763); experiment: SEC; Y3 and STAT3ND alone or mixed equimolar (100 μM in text and methods, 50 μM in the legend), preincubated 10 min on ice; Superdex 75 Increase 10/300 GL, 20 mM Tris-HCl pH 8.0, 100 mM NaCl, 4 °C, 0.5 ml/min; fractions on SDS-PAGE

Sequence of C terminally LgBiT-fused C protein (Sendai virus) (P04862 1-204): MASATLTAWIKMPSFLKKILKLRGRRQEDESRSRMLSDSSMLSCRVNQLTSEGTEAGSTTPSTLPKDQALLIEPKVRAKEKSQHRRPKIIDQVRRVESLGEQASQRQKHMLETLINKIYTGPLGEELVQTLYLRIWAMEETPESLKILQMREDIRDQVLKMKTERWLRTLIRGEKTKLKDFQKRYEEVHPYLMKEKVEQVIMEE

In the case of “N terminally SmBiT-fused STAT3 (from UniProt P40763 1-770) (natural protein)”, the luciferase activity, fold lower than with SmBiT-fused STAT1 [1] is reported as 4.8 fold and the luciferase activity, fold over the SmBiT-fused SV40 large T antigen negative control [1] is reported as 1.3 fold.

With “N terminally histidine-tagged Y3 (C-terminal region of Sendai virus C protein) (domain or fragment)” the stoichiometry N (Y3 per STAT3ND (1:2)) [2] was 0.5 and the stoichiometry N [3] was 2.

Work on “N terminally histidine-tagged N-terminal domain of STAT3 (STAT3ND) (from UniProt P40763 3-138) (domain or fragment)” yielded a stoichiometry N [4] of 2.
